Data on 91 sequences can be found in the supplement of paper PMC9112550, “Optimization of the antimicrobial peptide Bac7 by deep mutational scanning” (BMC Biology, 2022).

In the data set the test system is Escherichia coli TOP10. Briefly: shrunken log2 fold change of peptide-encoding DNA abundance (4.5 h post-induction vs induction); higher = less antimicrobial activity (less host growth inhibition). As to conditions: time post-induction: 4.5 h; library: site-saturation at positions 5, 18, 19, 20.
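Note: peptides expressed intracellularly from a pBAD plasmid library in pooled LB shake-flask culture, induced with 0.3% L-arabinose, DNA abundance read by NGS, three biological replicates, DESeq2 with apeglm shrinkage.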

Regarding RRIRWRPPRLPRPRPRPDKAPRP, the “shrunken log2 fold change” value was -0.00149. For the sequence RRIRIRPPRLPRPRPRPIQWPRP, the “shrunken log2 fold change” value worked out at 0.0166. Then RRIRTRPPRLPRPRPRPNISPRP, with -0.293. Then RRIRYRPPRLPRPRPRPVRCPRP, with 0.0877.

For the sequence RRIRWRPPRLPRPRPRPPVFPRP, the “shrunken log2 fold change” value is 0.384. With RRIRVRPPRLPRPRPRPCRYPRP, the “shrunken log2 fold change” value is 0.0933. Take RRIRERPPRLPRPRPRPHNCPRP: the “shrunken log2 fold change” value was -0.417. Consider RRIRCRPPRLPRPRPRPQAEPRP, for which the “shrunken log2 fold change” value was found to be 0.215.

With RRIRMRPPRLPRPRPRPLVCPRP, the “shrunken log2 fold change” value turned out to be 0.368. Then RRIRPRPPRLPRPRPRPYYQPRP, with -0.496; and RRIRIRPPRLPRPRPRPMTRPRP, with -0.0885.

Take RRIRARPPRLPRPRPRPYHEPRP: the “shrunken log2 fold change” value is -0.167.

Consider RRIRQRPPRLPRPRPRPMGVPRP, for which the “shrunken log2 fold change” value is -0.00411. Then RRIRIRPPRLPRPRPRPAAEPRP, with 0.197; and RRIRIRPPRLPRPRPRPYCKPRP, with -0.592; and RRIRLRPPRLPRPRPRPMLTPRP, with 0.0606. For RRIRKRPPRLPRPRPRPTGFPRP, the “shrunken log2 fold change” value was found to be 0.0653. Consider RRIRLRPPRLPRPRPRPGRMPRP, for which the “shrunken log2 fold change” value turned out to be 0.123. Then RRIRPRPPRLPRPRPRPGKWPRP, with 0.118. Then RRIRLRPPRLPRPRPRPPNTPRP, with 0.00316; and RRIRERPPRLPRPRPRPHNDPRP, with -0.335. Consider RRIRCRPPRLPRPRPRPGNHPRP, for which the “shrunken log2 fold change” value was -0.587.

As for RRIRLRPPRLPRPRPRPVFAPRP, the “shrunken log2 fold change” value was 0.223. Then RRIRHRPPRLPRPRPRPRCTPRP, with 0.0847; and RRIRSRPPRLPRPRPRPPNYPRP, with -0.606. Then RRIRQRPPRLPRPRPRPRPCPRP, with 0.409. Then RRIRARPPRLPRPRPRPAANPRP, with 0.741; and RRIRPRPPRLPRPRPRPKHQPRP, with 0.0315; and RRIRCRPPRLPRPRPRPGWSPRP, with -0.0169. Turning to RRIRNRPPRLPRPRPRPDGNPRP, the “shrunken log2 fold change” value is 0.102.

Regarding RRIRKRPPRLPRPRPRPEIFPRP, the “shrunken log2 fold change” value was determined as 0.368. Then RRIRCRPPRLPRPRPRPGYVPRP, with -0.0932; and RRIRNRPPRLPRPRPRPFISPRP, with -0.0484; and RRIRGRPPRLPRPRPRPLQIPRP, with 0.803. As to RRIRTRPPRLPRPRPRPRTAPRP, the “shrunken log2 fold change” value is 2.87. Then RRIRSRPPRLPRPRPRPTHKPRP, with 0.202; and RRIRGRPPRLPRPRPRPPGRPRP, with 1.35; and RRIRMRPPRLPRPRPRPFSKPRP, with -0.284.

Consider RRIRCRPPRLPRPRPRPFEHPRP, for which the “shrunken log2 fold change” value is -0.792. RRIRGRPPRLPRPRPRPYDCPRP: the “shrunken log2 fold change” value is -0.147.

For RRIRQRPPRLPRPRPRPHQQPRP, the “shrunken log2 fold change” value was -0.101.

Consider RRIRWRPPRLPRPRPRPHIDPRP, for which the “shrunken log2 fold change” value is -0.466.

On to RRIRERPPRLPRPRPRPVNGPRP, for which the “shrunken log2 fold change” value is -0.323. Then RRIRGRPPRLPRPRPRPHYIPRP, with -0.0882; and RRIRKRPPRLPRPRPRPLNGPRP, with 0.0417. Then RRIRQRPPRLPRPRPRPRTCPRP, with -0.576; and RRIRRRPPRLPRPRPRPNWHPRP, with 0.151. Then RRIRGRPPRLPRPRPRPIARPRP, with 0.792; and RRIRARPPRLPRPRPRPYEHPRP, with -0.25.

For RRIRGRPPRLPRPRPRPITIPRP, the “shrunken log2 fold change” value came to 0.0958. Then RRIRVRPPRLPRPRPRPYTDPRP, with -0.339. Then RRIRWRPPRLPRPRPRPSTKPRP, with -0.0244; and RRIRGRPPRLPRPRPRPQCLPRP, with 0.405; and RRIRCRPPRLPRPRPRPNWVPRP, with -0.279. Then RRIRRRPPRLPRPRPRPEYTPRP, with 0.166. As to RRIRKRPPRLPRPRPRPLWLPRP, the “shrunken log2 fold change” value came out at 0.377. As to RRIRRRPPRLPRPRPRPYFAPRP, the “shrunken log2 fold change” value was 0.487. Then RRIRCRPPRLPRPRPRPMQLPRP, with -0.239. Then RRIRGRPPRLPRPRPRPGLGPRP, with 1.67; and RRIRERPPRLPRPRPRPWGEPRP, with -0.279; and RRIRRRPPRLPRPRPRPMNHPRP, with -0.281. Then RRIRMRPPRLPRPRPRPCPAPRP, with 0.574; and RRIRVRPPRLPRPRPRPRYSPRP, with -0.911. For RRIRQRPPRLPRPRPRPQYNPRP, the “shrunken log2 fold change” value is -1.1. As for RRIRPRPPRLPRPRPRPMIRPRP, the “shrunken log2 fold change” value was found to be 0.339. Then RRIRIRPPRLPRPRPRPMKEPRP, with 0.116. Consider RRIRCRPPRLPRPRPRPFHAPRP, for which the “shrunken log2 fold change” value was -0.44.

Turning to RRIRWRPPRLPRPRPRPIPKPRP, the “shrunken log2 fold change” value turned out to be 0.102. For RRIRDRPPRLPRPRPRPDYCPRP, the “shrunken log2 fold change” value is -0.045. Then RRIRYRPPRLPRPRPRPMPHPRP, with -0.202; and RRIRFRPPRLPRPRPRPWTYPRP, with -0.0132; and RRIRCRPPRLPRPRPRPHIIPRP, with -0.11.

On to RRIRERPPRLPRPRPRPDYPPRP, for which the “shrunken log2 fold change” value was 0.00237. Then RRIRWRPPRLPRPRPRPIRWPRP, with 0.0855; and RRIRKRPPRLPRPRPRPHVAPRP, with 0.0884. For the sequence RRIRFRPPRLPRPRPRPMRLPRP, the “shrunken log2 fold change” value came out at 0.947. RRIRDRPPRLPRPRPRPGFSPRP: the “shrunken log2 fold change” value is 0.0888. Then RRIRLRPPRLPRPRPRPSEHPRP, with -0.453; and RRIRKRPPRLPRPRPRPAWFPRP, with 0.0729; and RRIRARPPRLPRPRPRPMRRPRP, with 0.2. Then RRIRQRPPRLPRPRPRPQMLPRP, with 0.0203; and RRIRPRPPRLPRPRPRPEHIPRP, with 0.149; and RRIRPRPPRLPRPRPRPQVQPRP, with -0.148.

On to RRIRARPPRLPRPRPRPGSRPRP, for which the “shrunken log2 fold change” value turned out to be 0.279. RRIRPRPPRLPRPRPRPRQTPRP: the “shrunken log2 fold change” value stood at 0.338. Consider RRIRVRPPRLPRPRPRPICHPRP, for which the “shrunken log2 fold change” value is -0.224. Then RRIRHRPPRLPRPRPRPGLEPRP, with 0.00016. Then RRIRHRPPRLPRPRPRPSHQPRP, with -0.178. Then RRIRSRPPRLPRPRPRPIADPRP, with 0.191.

Turning to RRIRVRPPRLPRPRPRPDCGPRP, the “shrunken log2 fold change” value is -0.0382. Then RRIRARPPRLPRPRPRPAVPPRP, with 0.848.
